Reference: the DeepSol protein solubility set

Test: soluble on expression in E. coli; label from the status in PepcDB or PDB records

| Sequence | soluble on expression in E. coli |
| --- | --- |
| AHHHHHHGSPIRKVMKANEAAAWAAKLAKPKVIAAFPITPSTLIPEKISEFVANGELDAEFIKVESEHSAISACVGAAAAGVRTFTATASQGLALMHEILFIAAGMRLPIVMAIGNRALSAPINIWNDWQDTISQRDTGWMQFYAENNQEALDLILIAYKVAEDERVLLPAMVGFDAFILTHTVEPVEIPDQEVVDEFLGEYEPKHAYIDPARPITQGSLAFPAHYMESRYTVWEAMERAKKVIDEAFAEFEKKFGRKYQKIEEYKTEDADIIFVTMGSLAGTLKEWIDKKREEGYKVGAAKITVYRPFPVEEIRELAKKAKVLAFLEKNITIGLYGAVFTDASAALINESEKPLMVDFIVGLGGRDVTFNQLDEALEIAEKALKEGKVENPINWIGLRWELVK | soluble |
| MGVMESGRPPAKPRERVFVGGCLHAGMDHDTAGRTSRQILDAVGSAVIADDHFLETVMTGILARGHVLLEDVPGTGKTLTAQSFATALDLSFKRVQFTPDLLPSDITGSNVFNEATGEFDFQPGPVFANVVLADEINRAPPKTQAALLEAMGEKQVTVDGVTHDLPEPFFVIATQNPVEQEGTFGLPEAQRDRFIVKTSMGYPDFGGERELIDRRADRTAQAPSVTSVIDGERLPALQRTVESVTVDGTLRDYVVELGRATREDDRVDVGVSPRGIQRLFEATRAAAVLDGRDYAVPDDVKTVVEEAFAHRLVLTADAGVRGVDPATVVDDVLDRVEVPAVSPLEHHHHHH | not soluble |
| MWKMLSSEYSILLIDDDADVLDAYTQLLEQSGYRVFACNNPFEAQAWIQPDWPGIVLSDVCMPGCSGIDLMMLFHQDDQQLPILLITGHGDVPMAVDAVKKGAWDFLQKPVDPGKLLSLVEEALRQRQSIIARRQYCQQTLQVELIGRSEWINQYRRRLQQLSETDIAVWLYGAPGTGRMTGARYLHQFGRNAQGEFVYRELTPDNAPQLNDFIALAQGGTLVLSHPEHLTREQQYHLVQLQSQEHRPFRLIGIGDTSLVELAASNHIIAELYYCFAMTQIACLPLTQRPDDIEPLFRHYLCKACQRLNHPVPEVGKEMLKEMMRRMWPNNVRELANAAELFTVGVLPLAETANPLMHVGTPTPLDRRVEDAERQIITEALNIHQGRINEVAEYLQIPRKKLYLRMKKYGLSKEHYKI | not soluble |
| MSQFTHYPPVSDKQLGFFIDSSRCSGCKACQVACKDKNNLEVGRRFRRVYEVKGGSFIPTGQGGVSNNVFAYTLSISCNHCADPVCTKNCPTTAMHKRPGDGIVRVDTDKCVGCGYCAWSCPYGAPQLNEQTGQMSKCDMCVDLLAKGEPPVCVATCPLEAIKFGPIDELRAKYGSVCDVNGLPDSSITKPNLVVKAHQGAEKEGKRHA | not soluble |
| GLVPRGSHMMEILRGSPALSAFRINKLLARFQAANLQVHNIYAEYVHFADLNAPLNDSEQAQLTRLLQYGPALSSHTPAGKLLLVTPRPGTISPWSSKATDIAHNCGLQQVDRLERGVAYYIEASTLTAEQWRQVAAELHDRMMETVFSSLTDAEKLFIHHQPAPVSSVDLLGEGRQALIDANLRLGLALAEDEIDYLQEAFTKLGRNPNDIELYMFAQANSEHCRHKIFNADWIIDGKPQPKSLFKMIKNTFETTPDYVLSAYKDNAAVMEGSAVGRYFADHNTGRYDFHQEPAHILMKVETHNHPTAISPWPGAATGSGGEIRDEGATGRGAKPKAGLVGFSVSNLRIPGFEQPWEEDFGKPERIVTALDIMTEGPLGGAAFNNEFGRPALTGYFRTYEEKVNSHNGEELRGYHKPIMLAGGIGNIRADHVQKGEIVVGAKLIVLGGPAMNIGLGGGAASSMASGQSDADLDFASVQRDNPEMERRCQEVIDRCWQLGDANPILFIHDVGAGGLSNAMPELVSDGGRGGKFELRDILSDEPGMSPLEIWCNESQERYVLAVAADQLPLFDELCKRERAPYAVIGDATEEQHLSLHDNHFDNQPIDLPLDVLLGKTPKMTRDVQTLKAKGDALNRADITIADAVKRVLHLPTVAEKTFLVTIGDRTVTGMVARDQMVGPWQVPVADCAVTTASLDSYYGEAMSIGERAPVALLDFAASARLAVGEALTNIAATQIGDIKRIKLSANWMAAAGHPGEDAGLYDAVKAVGEELCPQLGLTIPVGKDSMSMKTRWQEGNEQREMTSPLSLVISAFARVEDVRHTLTPQLSTEDNALLLIDLGKGHNALGATALAQVYRQLGDKPADVRDVAQLKGFYDAMQALVAARKLLAWHDRSDGGLLVTLAEMAFAGHCGVQVDIAALGDDHLAALFNEELGGVIQVRAEDRDAVEALLAQYGLADCVHYLGQALAGDRFVITANDQTVFSESRTTLRVWWAETTWQMQRLRDNPQCADQEHEAKANDTDPGLNVKLSFDINEDIAAPYIATGARPKVAVLREQGVNSHVEMAAAFHRAGFDAIDVHMSDLLGGRIGLGNFHALVACGGFSYGDVLGAGEGWAKSILFNHRVRDEFETFFHRPQTLALGVCNGCQMMSNLRELIPGSELWPRFVRNHSDRFEARFSLVEVTQSPSLLLQGMVGSQMPIAVSHGEGRVEVRDDAHLAALESKGLVALRYVDNFGKVTETYPANPNGSPNGITAVTTENGRVTIMMPHPERVFRTVANSWHPENWGEDSPWMRIFRNARKQLG | soluble |
| LLAKEKYNGTESDDKYDPVEIVKWKIDREDGRKTLNSYINVLVLGLDDDEKRSDVIALINYNPDENKMNILSIARDTRVKVNGKYMKINALIGKGGEKMVIDMVEDITGLPVDYYVTLNFKGFREIVDTLGGVEINVPFDMDYDDPYQNLHIHLKKGKQVLDGKKAEQFVRYRKGNHNGEGYEDGDLGRIKMQQLFMREFVNQKLKLKYLLKADEIFYTLKKNMRTNIEIGDIRYFIKDIKNIKTPEINGYTLPGYSRYIGGQWFYIYDKKKTKELIEQNFYYSN | soluble |
| MSLTSKMMAFLPYFLELKGKRVNIQALINDRVSQAIEAAGAPAGTPALVRQSAKAQFGDYQANGIMGAAKQLGTNPREFAQKVLDVLNLEGIASKTEIAGPGFINIFLSEEFLAAQAEAALADARLGVAQEAPKTIVADYSAPNVAKEMHVGHLRSTIIGDAVVRTLEFLGHKVIRANHIGDWGTQFGMLIANLERVQKASGEVSMELSDLEAFYRESKKLYDEDEQFAETARNYVVKLQGGDPFCLEMWKKLVDVTMIQNQRNYDRLNVSLTRENVMGESMYNDMLPQIVSDLKAKGLAVEDDGAQVVFLEEFKNKDGEPMGVIIQKRDGGFLYTTTDIACAKYRYETLGADRVLYFIDSRQHQHLMQAWTIVRKAGYIPENVSLEHHAFGMMLGKDGRPFKTRAGGTVRLADLLDEAQERAKALIESKNPELSAEEKANIANTVAMAAVKYADLSKHRTTDYVFDWDNMLAFEGNTAPYMQYAYTRVASVFAKAGVDMNELTGHIQITEEKEKALIAKLLQFEEAVQSVAREGQPHIMCSYLFELAGIFSSFYEACPILVAEQESIKQSRLKLAALTAKTIKQGLALLGIDTLERMEGHHHHHH | soluble |
| MSLKTVFKPTLLAVLVAASAPVLAHSLIADTKAPSPTTKAFAAEQRNTLPFADQEDFKLVEKGLIAQQKDLEIKDANGKVVWELGNYRFLLDGLDYDSIHPSLQRQAQLNMHHGLYKVTDRIYQVRGYDLANITFVKGDTGWIVFDPLTVPATAKAALDFVNQELGERPVKAVVYSHAHADHFGGVKGIVSQEQVDRGEVPIIAPKGFLNHAVAENVLAGNAMSRRTTYQYGNVLPKGATGQVDAAIGKNVAQGEVSLIAPTKVISEQTETVVIDGVTMEFQNTPGTESPAEMNTYFPQFKALWMAENTVGGLHNVYTLRGAEVRDAKAWSKYINESIHMYAKEADVMFASHTWPRWGNDNINHFLRKQRDMYGYIHDQALRLANHGVTINEIQDEFHVPDVLAHEWYNRGYHGSYHRNAKAVINKYLGYFDMNPATLRPLAPTDAAPKYVAAMGGMDNVIKLGKEAFDKGEFRWCAEIVDKAVFAEPSNKQARYLQADCLEQLGYQSESAGERNTYLMGAYELRNGVPKVSATKTAGADTVVAMDTELFLDYLGVRLNGDKAAGIDYTINFVLPDVNEKFLVELENAHLNNLKGIQSENPDMTLTLNRAQLNQVLMGKTTIQQLAKEGKAKIEGNAQALTDIAGMLDNFEFWFNIIEPKTKEGGSHHHHHH | soluble |
| MGHHHHHHSHMRIVMKFGGVSVKDGENIYHCANLVKKFSEGNEVVVVVSAMQGVTDALLKAAHRCCSEPSAGFIKMFIADMMKRHYEAIEYAVRNDEIKAKVIAAVERLLDELEKVLLGISYLGELTRRSEDYIVSFGERLSAPIFSAALLSLGVDSVALTGGDAGIITDRNFGRAKPLPGVYTTIRNRLEPLLTIKKTIPVVTGFIGATDDGSITTLGRGGSDYTATILAAALDADEVWLWKEVDGIMTCDPKYVPNARVIPEISYQEAMELSHFGAKILHPRALEPVMRKNIPVRIKN | not soluble |
| MTPDQMRDASLLELFRLEAEAQTQVLNAGLMALERSPTQADQLEACMRAAHSLKGAARIVGLDAGVRVAHVMEDCLVEAQDGRLLLQSEHIDALLQGCDLLLRIGTPPAGDAGWAEGAGREEIDGLVLRLEGLVRSGLPLARAELPATTPGLPEAVPEAPPAASAAASDDNDEEPAGQAGGEQAEERRSRVLRVTAERLDRLLDISSKSLVEFQRIKPLADSLQRLRRLQSSASRALDVVRETVQETALDPQAQAMLGEARQLIGECQQMLVQHIADLDEFAWQGGQRAQVLYDAALASRMRPFADVLSGQARMVRDLGRSLGKQVRLLVEGESTQVDRDVLEKLEAPLTHLLRNAVDHGIEAPETRLAAGKPAEGRITIRARHHAGMLVLELSDDGGGIDLQRLRETVLNRQFATAETVAQLSEEELLAFLFLPGFSMREQVTEVSGRGVGLDAVQHMVRQLRGGVRMEQRQGQGALFHVEVPLTLSVVRSLVVEIGEEAYAFPLAHIERMCELEAEEIVQLEGRQHFWYEGRHVGLVSAAQLLQRPESSRTEGAIPVVVVRDRDAVYGVAVERFVGERTLVVMPLDPRLGKVRDVSAGALLDDGSPVLILDVEDLLHSVGKLLSSGRLERIDRSRRQAGGAQRKRILVVDDSLTVRELERKLLLGRGYDVAVAVDGMDGWNALRSEHFDLLITDIDMPRMDGIELVTLVRRDSRLQSLPVMVVSYKDREEDRRRGLDAGADYYLAKASFHDEALLDAVVVLIGEAQG | not soluble |
| MTKNKMEAKIDELINNDPVWSSQNESLISKPYNHILLKPGKNFRLNLIVQINRVMNLPKDQLAIVSQIVELLHNSSLLIDDIEDNAPLRRGQTTSHLIFGVPSTINTANYMYFRAMQLVSQLTTKEPLYHNLITIFNEELINLHRGQGLDIYWRDFLPEIIPTQEMYLNMVMNKTGGLFRLTLRLMEALSPSSHHGHSLVPFINLLGIIYQIRDDYLNLKDFQMSSEKGFAEDITEGKLSFPIVHALNFTKTKGQTEQHNEILRILLLRTSDKDIKLKLIQILEFDTNSLAYTKNFINQLVNMIKNDNENKYLPDLASHSDTATNLHDELLYIIDHLSEL | soluble |
| MGYTVAVVGATGAVGAQMIKMLEESTLPIDKIRYLASARSAGKSLKFKDQDITIEETTETAFEGVDIALFSAGSSTSAKYAPYAVKAGVVVVDNTSYFRQNPDVPLVVPEVNAHALDAHNGIIACPNCSTIQMMVALEPVRQKWGLDRIIVSTYQAVSGAGMGAILETQRELREVLNDGVKPRDLHAEILPSGGDKKHYPIAFNALPQIDVFTDNDYTYEEMKMTKETKKIMEDDSIAVSATCVRIPVLSAHSESVYIETKEVAPIEEVKAAIAAFPGAVLEDDVAHQIYPQAINAVGSRDTFVGRIRKDLDAEKGIHMWVVSDNLLKGAAWNSVQIAETLHERGLVRPTAELKFELK | soluble |
| MGSDKIHHHHHHMAHIFVYGTLKRGQPNHKVMLDHSHGLAAFRGRGCTVESFPLVIAGEHNIPWLLYLPGKGHCVTGEIYEVDEQMLRFLDDFEDCPSMYQRTALQVQVLEWEGDGDPGDSVQCFVYTTATYAPEWLFLPYHESYDSEGPHGLRYNPRENR | soluble |
